# Where a chain is given by its changes, count along the chain named.
# B1: 26D5-75602-348-F04-mAb: human IgG1f/kappa mAb; VH SEQ ID NO: 58, VL SEQ ID NO: 88 (antibody, V domains shown)
# VH: EVQLVESGGGLIQPGGSLRLSCAASGFTVSSNQFSWVRQAPGKGLEWVSYFYPGGRTYYADSVKGRFTISRDNSKNTLYLQMNSLRAEDTAVYYCAKAGFGGGDYWGQGTLVTVSS
# VL: DIQMTQSPSSVSASVGDRVTITCRASQGISSNLAWYQQKPGKAPKLLIYAASSLQSGVPSRFSGSGSGTDFTLTISSLQPEDFATYYCQQANSFPLTFGGGTKVEIK
# B2: 25D5-75592-0348-A04-mAb: human IgG1f/kappa mAb; VH SEQ ID NO: 61, VL SEQ ID NO: 89 (antibody, V domains shown)
# VH: B1 VH with Q33A, F34I, S35A, S49A, F51I, A96V, K97T
# VL: B1 VL with L33N, A34Q, A50Y, A91G, S93E
# B3: 26D5-296-G03-mAb: human IgG1f/kappa mAb; VH SEQ ID NO: 72, VL SEQ ID NO: 88 (antibody, V domains shown)
# VH: B1 VH with T28Q, Q33Y, F34M, Y50F, F51I, K97R
# VL: B1 VL
# B4: 26D5-296-H03-mAb: human IgG1f/kappa mAb; VH SEQ ID NO: 63, VL SEQ ID NO: 88 (antibody, V domains shown)
# VH: B1 VH with Q33A, F34M, Y50F, F51I, K97R, A98G
# VL: B1 VL
# B5: 26D5-295-D07-mAb: human IgG1f/kappa mAb; VH SEQ ID NO: 75, VL SEQ ID NO: 88 (antibody, V domains shown)
# VH: B1 VH with T28Q, S31E, Q33Y, F34M, Y50F, F51I, P53S, K97R, A98G
# VL: B1 VL
# B6: 26D5-296-F08-mAb: human IgG1f/kappa mAb; VH SEQ ID NO: 73, VL SEQ ID NO: 95 (antibody, V domains shown)
# VH: B1 VH with Q33Y, F34M, Y50F, F51I, R56E, K97R, A98G
# VL: B1 VL with G28Y, S30E
# B7: 26D5-295-E07-mAb: human IgG1f/kappa mAb; VH SEQ ID NO: 66, VL SEQ ID NO: 88 (antibody, V domains shown)
# VH: B1 VH with T28Q, Q33A, F34M, Y50F, F51I, P53S, K97R, A98G
# VL: B1 VL
# B8: 26D5-295-G07-mAb: human IgG1f/kappa mAb; VH SEQ ID NO: 69, VL SEQ ID NO: 88 (antibody, V domains shown)
# VH: B1 VH with Q33Y, F34M, Y50F, F51I, K97R, A98G
# VL: B1 VL
# B9: 26D5-296-G08-mAb: human IgG1f/kappa mAb; VH SEQ ID NO: 70, VL SEQ ID NO: 95 (antibody, V domains shown)
# VH: B1 VH with T28Q, Q33Y, F34M, Y50F, F51I, P53S, K97R
# VL: B1 VL with G28Y, S30E
# B10: 26D5-296-G07-mAb: human IgG1f/kappa mAb; VH SEQ ID NO: 65, VL SEQ ID NO: 94 (antibody, V domains shown)
# VH: B1 VH with S31E, Q33Y, F34M, Y50F, F51I, P53S, K97R
# VL: B1 VL with G28Y
# B11: 26D5-75746-0348-C07-mAb: human IgG1f/kappa mAb; VH SEQ ID NO: 57, VL SEQ ID NO: 92 (antibody, V domains shown)
# VH: B1 VH with Q33A, F51I, P53S, K97A
# VL: B1 VL with N32Q, L33V, A50P, S53N, Q55W, S93N
# B12: 26D5-296-F03-mAb: human IgG1f/kappa mAb; VH SEQ ID NO: 70, VL SEQ ID NO: 88 (antibody, V domains shown)
# VH: B1 VH with T28Q, Q33Y, F34M, Y50F, F51I, P53S, K97R
# VL: B1 VL
# B13: 26D5-296-F07-mAb: human IgG1f/kappa mAb; VH SEQ ID NO: 71, VL SEQ ID NO: 94 (antibody, V domains shown)
# VH: B1 VH with Q33Y, F34M, Y50F, F51I, P53S, K97R
# VL: B1 VL with G28Y
# B14: 26D5-295-A08-mAb: human IgG1f/kappa mAb; VH SEQ ID NO: 74, VL SEQ ID NO: 88 (antibody, V domains shown)
# VH: B1 VH with S31E, Q33Y, F34M, Y50F, F51I, K97R
# VL: B1 VL
# B15: 26D5-075017-343-F04-mAb: human IgG1f/kappa mAb; VH SEQ ID NO: 60, VL SEQ ID NO: 91 (antibody, V domains shown)
# VH: B1 VH with Q33A, F34M, Y50F, F51I, K97R
# VL: B1 VL with Y36W
# B16: 26D5-295-C07-mAb: human IgG1f/kappa mAb; VH SEQ ID NO: 67, VL SEQ ID NO: 88 (antibody, V domains shown)
# VH: B1 VH with Q33A, F34M, Y50F, F51I, P53S, K97R, A98G
# VL: B1 VL
# B17: 26D5-296-B07-mAb: human IgG1f/kappa mAb; VH SEQ ID NO: 68, VL SEQ ID NO: 93 (antibody, V domains shown)
# VH: B1 VH with T28Q, Q33A, F34M, Y50F, F51I, P53S, K97R
# VL: B1 VL with N32W, A91H
# B18: 26D5-296-C08-mAb: human IgG1f/kappa mAb; VH SEQ ID NO: 66, VL SEQ ID NO: 95 (antibody, V domains shown)
# VH: B1 VH with T28Q, Q33A, F34M, Y50F, F51I, P53S, K97R, A98G
# VL: B1 VL with G28Y, S30E
# B19: 25D5-296-A07-mAb: human IgG1f/kappa mAb; VH SEQ ID NO: 60, VL SEQ ID NO: 93 (antibody, V domains shown)
# VH: B1 VH with Q33A, F34M, Y50F, F51I, K97R
# VL: B1 VL with N32W, A91H
# B20: 26D5-296-D08-mAb: human IgG1f/kappa mAb; VH SEQ ID NO: 69, VL SEQ ID NO: 95 (antibody, V domains shown)
# VH: B1 VH with Q33Y, F34M, Y50F, F51I, K97R, A98G
# VL: B1 VL with G28Y, S30E
# B21: 26D5-295-F07-mAb: human IgG1f/kappa mAb; VH SEQ ID NO: 64, VL SEQ ID NO: 88 (antibody, V domains shown)
# VH: B1 VH with S31E, Q33A, F34M, Y50F, F51I, P53S, K97R, A98G
# VL: B1 VL
# B22: 26D5-75576-348-B03-mAb: human IgG1f/kappa mAb; VH SEQ ID NO: 59, VL SEQ ID NO: 88 (antibody, V domains shown)
# VH: B1 VH with Q33D, F34M, W36Y, S49A, F51I, P53S, A96V, K97T
# VL: B1 VL
# Experiment: SPR (Biacore) Protein A mAb capture, Compound A injected
# Conditions: 37° C., binding to Compound A, apparent affinity, for rank ordering only, read-out: KD
# Method: The binding of hybridoma expressed 26D5 parent mAb (VH SEQ ID NO: 83 and VL SEQ ID NO: 98 in IgG1 f format)(P1-072224) and affinity matured mAbs to Compound A was examined by SPR (Biacore™) using a protein A capture method. The running buffer was 1×PBS (phosphate buffered saline, pH 7.4) with 0.05% Tween 20 and 2% DMSO. Binding experiments were carried out at 37° C. Protein A was coated on a CM5 S-series sensor chip (Cytiva, Cat. No. 29149603) at high density (2000+ RUs of protein A). The immobilization of protein A was carried out using the standard amine coupling immobilization procedure recommended by the manufacturer. The affinity matured antibody was then captured at a concentration of 2 ug/mL on the protein A surface at a flow rate of 3 uL/min for 2 minutes. Compound A was then injected over the captured antibody at concentrations spanning 100-3 nM (100, 50, 25, 12.5, 6.25, 3.125 nM) (FIG. 10) and for screening concentrations spanning 100-3 nM (100, 33, 11 nM) for 2 minutes at a flow rate of 100 uL/min and allowed to dissociate for at least 450 seconds. The chip surface was regenerated after each cycle with a 40 second pulse of 10 mM Glycine, pH 1.5. Background binding to the protein A surface alone was used to subtract non-specific binding. All experiments were run on a Biacore T200 surface plasmon resonance instrument using Biacore T200 Control software v. 2. Data analysis was performed using Biacore T200 evaluation software v 3.1. Apparent affinities were determined for rank ordering only since dissociation rates were too slow to be measured by Biacore. The names of the mAbs in Table 10 refer to mAbs having the H and L chain sequences of the corresponding Fabs in Table 3 in an IgG1f format.
row,Molecule,Kd
1,B1,< 0.05 nM
2,B2,0.1 nM
3,B3,0.61 nM
4,B4,1.1 nM
5,B5,1 nM
6,B6,0.68 nM
7,B7,1.2 nM
8,B8,0.67 nM
9,B9,0.49 nM
10,B10,0.38 nM
11,B11,0.1 nM
12,B12,0.54 nM
13,B13,0.58 nM
14,B14,0.58 nM
15,B15,0.11 nM
16,B16,1.6 nM
17,B17,1.8 nM
18,B18,0.59 nM
19,B19,1.6 nM
20,B20,0.59 nM
21,B21,0.94 nM
22,B22,< 0.06 nM

# Same assay, conditions: 37° C., binding to Compound A, apparent, for rank ordering only
Molecule,Ka,Kd
B1,910000 M⁻¹ s⁻¹,<5e-05 s⁻¹
B2,1e+06 M⁻¹ s⁻¹,0.00011 s⁻¹
B3,940000 M⁻¹ s⁻¹,0.00058 s⁻¹
B4,160000 M⁻¹ s⁻¹,0.00018 s⁻¹
B5,800000 M⁻¹ s⁻¹,0.00081 s⁻¹
B6,870000 M⁻¹ s⁻¹,0.0006 s⁻¹
B7,190000 M⁻¹ s⁻¹,0.00023 s⁻¹
B8,630000 M⁻¹ s⁻¹,0.00043 s⁻¹
B9,800000 M⁻¹ s⁻¹,0.00039 s⁻¹
B10,850000 M⁻¹ s⁻¹,0.00032 s⁻¹
B11,2.4e+06 M⁻¹ s⁻¹,0.00024 s⁻¹
B12,720000 M⁻¹ s⁻¹,0.00039 s⁻¹
B13,760000 M⁻¹ s⁻¹,0.00044 s⁻¹
B14,1e+06 M⁻¹ s⁻¹,0.00059 s⁻¹
B15,1.5e+06 M⁻¹ s⁻¹,0.00017 s⁻¹
B16,200000 M⁻¹ s⁻¹,0.00033 s⁻¹
B17,290000 M⁻¹ s⁻¹,0.00042 s⁻¹
B18,530000 M⁻¹ s⁻¹,0.00031 s⁻¹
B19,170000 M⁻¹ s⁻¹,0.00027 s⁻¹
B20,770000 M⁻¹ s⁻¹,0.00045 s⁻¹
B21,180000 M⁻¹ s⁻¹,0.00017 s⁻¹
B22,880000 M⁻¹ s⁻¹,<5e-05 s⁻¹

# From US12065505B2, “Antibodies and antigen binding peptides for factor XIa inhibitors and uses thereof” (Bristol-Myers Squibb Company, priority 2021, dated 2024)
